Experimental data: the supplement of paper PMC10567573

B1: INTS3 (parent)
chain: KKREFRFHPIKETVVEEPVDITPY
B2: FANCE (parent)
chain: AQVLMLGQILELPWKEETFLVLQS

Variants of: B1
Test: protein stability index of a GFP-peptide fusion (GPS, HEK-293T) (PSI 1-6); higher = more stable
Details: c terminus: a fixed tail appended
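Also: lentivirally expressed fusions sorted by FACS into six bins by GFP to DsRed ratio, PSI derived from sequencing read proportions per bin multiplied by bin number.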

Point of comparison: KKREFRFHPIKETVVEEPVDITDY [P23D], protein stability index 2.04. Against it:
- KKREFRFHPIKETVVEEPVDITPT [Y24T] — higher, 2.24
- KKREFRFHPIKETVVEEPVDITPN [Y24N] — lower, 2.03
- KKREFRFHPIKETVVEEPVDITPQ [Y24Q] — the same, 2.04
- KKREFRFHPIKETVVEEPVDITPW [Y24W] — lower, 1.88
- KKREFRFHPIKETVVEEPVDITPC [Y24C] — higher, 2.16
- KKREFRFHPIKETVVEEPVDITPE [Y24E] — higher, 2.38
- KKREFRFHPIKETVVEEPVDITPD [Y24D] — higher, 2.44
- KKREFRFHPIKETVVEEPVDITPH [Y24H] — lower, 1.99
- KKREFRFHPIKETVVEEPVDITPA [Y24A] — higher, 2.59
- KKREFRFHPIKETVVEEPVDITPP [Y24P] — higher, 2.17
- KKREFRFHPIKETVVEEPVDITPI [Y24I] — higher, 2.33
- KKREFRFHPIKETVVEEPVDITPF [Y24F] — higher, 2.18
- KKREFRFHPIKETVVEEPVDITPK [Y24K] — lower, 1.71
- KKREFRFHPIKETVVEEPVDITPR [Y24R] — lower, 1.47
- KKREFRFHPIKETVVEEPVDITPS [Y24S] — lower, 1.84
- KKREFRFHPIKETVVEEPVDITPL [Y24L] — higher, 2.17
- KKREFRFHPIKETVVEEPVDITPV [Y24V] — higher, 2.26
- KKREFRFHPIKETVVEEPVDITPG [Y24G] — higher, 2.44
- KKREFRFHPIKETVVEEPVDITPM [Y24M] — lower, 1.76
- KKREFRFHPIKETVVEEPVDITSY [P23S] — lower, 1.61
- KKREFRFHPIKETVVEEPVDITHY [P23H] — lower, 1.74
- KKREFRFHPIKETVVEEPVDITQY [P23Q] — lower, 1.88
- KKREFRFHPIKETVVEEPVDITCY [P23C] — higher, 2.08
- KKREFRFHPIKETVVEEPVDITMY [P23M] — higher, 2.4
- KKREFRFHPIKETVVEEPVDITLY [P23L] — lower, 1.84
- KKREFRFHPIKETVVEEPVDITAY [P23A] — lower, 1.66
- KKREFRFHPIKETVVEEPVDITIY [P23I] — lower, 1.5
- KKREFRFHPIKETVVEEPVDITEY [P23E] — higher, 3.24
- KKREFRFHPIKETVVEEPVDITKY [P23K] — lower, 1.99
- KKREFRFHPIKETVVEEPVDITYY [P23Y] — higher, 2.87
- KKREFRFHPIKETVVEEPVDITFY [P23F] — lower, 1.67
- KKREFRFHPIKETVVEEPVDITGY [P23G] — higher, 3.45
- KKREFRFHPIKETVVEEPVDITTY [P23T] — lower, 1.46
- KKREFRFHPIKETVVEEPVDITVY [P23V] — lower, 1.44
- KKREFRFHPIKETVVEEPVDITRY [P23R] — lower, 1.55
- KKREFRFHPIKETVVEEPVDITWY [P23W] — higher, 2.28
- KKREFRFHPIKETVVEEPVDITNY [P23N] — lower, 1.84
- KKREFRFHPIKETVVEEPVDISPY [T22S] — higher, 2.33
- KKREFRFHPIKETVVEEPVDIRPY [T22R] — lower, 1.99
- KKREFRFHPIKETVVEEPVDIQPY [T22Q] — lower, 1.93
- KKREFRFHPIKETVVEEPVDILPY [T22L] — higher, 2.33
- KKREFRFHPIKETVVEEPVDIWPY [T22W] — lower, 1.3
- KKREFRFHPIKETVVEEPVDIVPY [T22V] — lower, 1.58
- KKREFRFHPIKETVVEEPVDINPY [T22N] — lower, 1.72
- KKREFRFHPIKETVVEEPVDIMPY [T22M] — lower, 1.89
- KKREFRFHPIKETVVEEPVDIYPY [T22Y] — higher, 2.26
- KKREFRFHPIKETVVEEPVDIPPY [T22P] — lower, 1.86

Variants of: B2
Test: as above
Details: c terminus: a fixed tail appended

Point of comparison: AQVLMLGQILELPWKEETTLVLQS [F19T], protein stability index 1.56. Against it:
- AQNLMLGQILELPWKEETFLVLQS [V3N] — higher, 1.97
- AQALMLGQILELPWKEETFLVLQS [V3A] — higher, 3.44
- AQILMLGQILELPWKEETFLVLQS [V3I] — higher, 2.75
- AQDLMLGQILELPWKEETFLVLQS [V3D] — higher, 1.81
- AQPLMLGQILELPWKEETFLVLQS [V3P] — the same, 1.56
- AQVLMLGQILELPWKRETFLVLQS [E16R] — higher, 1.97
- AQVLMLGQILELPWKGETFLVLQS [E16G] — higher, 2.03
- AQVLMLGQILELPWKYETFLVLQS [E16Y] — higher, 3.33
- AQVLMLGQILELPWKLETFLVLQS [E16L] — higher, 3.01
- AQVLMLGQILELPWKTETFLVLQS [E16T] — higher, 3.35
- AQVLMLGQILELPWKMETFLVLQS [E16M] — higher, 2.5
- AQVLMLGQILELPWKEETMLVLQS [F19M] — higher, 2.68
- AQVLMLGQILELPWKEETQLVLQS [F19Q] — lower, 1.51
- AQVLMLGQILELPWKEETGLVLQS [F19G] — higher, 2.11
- AQVLMLGQILELPWKEETVLVLQS [F19V] — higher, 2.48
- AQVLMLGQILELPWKEETPLVLQS [F19P] — lower, 1.55
- AQVLMLGQILELPWKEETDLVLQS [F19D] — higher, 2.53
- AQVLMLGQILELPWKEETELVLQS [F19E] — higher, 2.25
- AQVLMLGQILELPWKEETHLVLQS [F19H] — higher, 3.46
- AQVLMLGQILELPWKEETNLVLQS [F19N] — higher, 2.02
- AQVLNLGQILELPWKEETFLVLQS [M5N] — higher, 2.12
- AQVLELGQILELPWKEETFLVLQS [M5E] — higher, 1.79
- AQVLLLGQILELPWKEETFLVLQS [M5L] — higher, 2.3
- AQVLCLGQILELPWKEETFLVLQS [M5C] — higher, 1.57
- AQVLYLGQILELPWKEETFLVLQS [M5Y] — higher, 2.58
- AQVLRLGQILELPWKEETFLVLQS [M5R] — higher, 1.78
- AQVLMRGQILELPWKEETFLVLQS [L6R] — lower, 1.13
- AQVLMHGQILELPWKEETFLVLQS [L6H] — higher, 3.74
- AQVLMPGQILELPWKEETFLVLQS [L6P] — lower, 1.53
- AQVLMLGQILELPWKEETFWVLQS [L20W] — higher, 2.87
- AQVLMLGQILELPWKEETFQVLQS [L20Q] — higher, 2.98
- AQVLMLGQILELPWKEETFHVLQS [L20H] — higher, 2.03
- AQVLMLGQILELPWKEETFAVLQS [L20A] — higher, 3.76
- AQVLMLGQILELPWKEETFIVLQS [L20I] — higher, 2.31
- AQVLMLGQILELPWKEETFKVLQS [L20K] — higher, 1.91
- AQVLMLGQILELPWKEETFMVLQS [L20M] — higher, 1.73
- AQVLMLGQILELPWKEETFVVLQS [L20V] — higher, 3
- AQVLMLGQILELPWKEETFSVLQS [L20S] — higher, 2.3
- AQVLMLGQILELPWKEETFLVVQS [L22V] — higher, 1.7
- AQVLMLGQILELPWKEETFLVSQS [L22S] — lower, 1.13
- AQVLMLGQILELPWKEETFLVWQS [L22W] — higher, 2.86
- AQVLMLGQILELPWKEETFLVAQS [L22A] — higher, 2.06
- AQVLMLGQILELPWKEETFLVTQS [L22T] — higher, 1.61
- AQVLMLGQILELPWKEETFLVDQS [L22D] — lower, 1.49
- AQVLMLGQILELPWKEETFLVQQS [L22Q] — higher, 2.08
